The RNAGym collection of RNA variant scans (doi:10.7554/elife.90254)

B1: LINE1-mini (parent)
chain: GGCAGAGCUCAACACAGCGUGGCAAAGUGGCUGUGGCUAGACUGCC

Variants of: B1
Experiment: self-cleavage, relative activity (ratio to wild type); higher = more cleavage; in vitro, sequencing; the parent is a self-cleaving ribozyme

| Variant | self-cleavage |
| --- | --- |
| C3A U43C | 0.28 |
| C3G G35U | 0.28 |
| C3G G35C | 0.13 |
| C3G G35A | 0.23 |
| C3U A4U | 0.15 |
| C3U A4C | 0.26 |
| C3U A4G | 0.31 |
| C3A A41U | 0.32 |
| C3A A41G | 0.22 |
| C3G A41C | 0.1 |
| C3G A41U | 0.29 |
| C3G A41G | 0.09 |
| C3G U32A | 0.05 |
| C3G U32C | 0.14 |
| C3G U32G | 0.11 |
| C3G A26G | 0.36 |
| C3G A26U | 0.56 |
| C3G A26C | 0.37 |
| C3U A6C | 0.5 |
| C3U A6U | 0.38 |
| C3U A6G | 0.09 |
| C3U | 0.48 |
| C3G | 0.48 |
| C3U G40U | 0.12 |

| Variant | self-cleavage |
| --- | --- |
| C3U G40A | 0.12 |
| C3U G40C | 0.07 |
| C3G G30U | 0.71 |
| C3G G30C | 0.32 |
| C3G G30A | 0.82 |
| C3U A26G | 0.34 |
| C3U A26U | 0.67 |
| C3U A26C | 0.35 |
| C3U G29U | 0.34 |
| C3U G29C | 0.37 |
| C3U G29A | 0.26 |
| C3U C23G | 0.46 |
| C3U C23A | 0.55 |
| C3U C23U | 0.38 |
| C3G A24U | 0.72 |
| C3G A24C | 0.35 |
| C3G A24G | 0.5 |
| C3G C13U | 0.37 |
| C3G C13A | 0.48 |
| C3G C13G | 0.55 |
| C3U C42G | 0.07 |
| C3U C42U | 0.14 |
| C3U C42A | 0.09 |
| C3U G33U | 0.1 |

| Variant | self-cleavage |
| --- | --- |
| C3U G33C | 0.07 |
| C3U G33A | 0.13 |
| C3A U9G | 0.57 |
| C3A U9C | 0.05 |
| C3A U9A | 0.59 |
| C3G U9A | 0.27 |
| C3G U9C | 0.03 |
| C3G U9G | 0.3 |
| C3G C8A | 0.52 |
| C3G C8G | 0.08 |
| C3G C8U | 0.39 |
| C3U G27U | 0.41 |
| C3U G27A | 0.36 |
| C3U G27C | 0.2 |
| C3G G7C | 0.05 |
| C3G G7U | 0.22 |
| C3G G7A | 0.49 |
| C3A G7C | 0.13 |
| C3A G7U | 0.4 |
| C3A G7A | 0.97 |
| C3U C18U | 0.42 |
| C3U C18G | 0.09 |
| C3U C18A | 0.23 |
| C3G G36A | 0.74 |

| Variant | self-cleavage |
| --- | --- |
| C3G G36C | 0.66 |
| C3G G36U | 0.2 |
| C3A U32C | 0.31 |
| C3A U32G | 0.15 |
| C3A U32A | 0.12 |
| C3A G17A | 0.16 |
| C3A G17U | 0.2 |
| C3A G17C | 0.31 |
| C3U C46A | 0.18 |
| C3U C46U | 0.21 |
| C3U C46G | 0.37 |
| C3A G35U | 0.59 |
| C3A G35A | 0.35 |
| C3A G35C | 0.18 |
| C3U G30U | 0.5 |
| C3U G30A | 0.75 |
| C3U G30C | 0.44 |
| C3U G5C | 0.27 |
| C3U G5A | 0.21 |
| C3U G5U | 0.2 |
| C3U A41U | 0.56 |
| C3U A41C | 0.09 |
| C3U A41G | 0.12 |
| C3G G17C | 0.15 |

| Variant | self-cleavage |
| --- | --- |
| C3G G17A | 0.14 |
| C3G G17U | 0.15 |
| C3G G27C | 0.13 |
| C3G G27U | 0.32 |
| C3G G27A | 0.21 |
| C3G U43C | 0.14 |
| C3G U43A | 0.41 |
| C3G U43G | 0.21 |
| C3G C42A | 0.28 |
| C3G C42U | 0.31 |
| C3G C42G | 0.05 |
| C3U C31G | 0.04 |
| C3U C31U | 0.1 |
| C3U C31A | 0.07 |
| C3A C42A | 0.33 |
| C3A C42U | 0.26 |
| C3A C42G | 0.08 |
| C3A G33C | 0.1 |
| C3A G33U | 0.15 |
| C3A G33A | 0.37 |
| C3A G5U | 0.28 |
| C3A G5A | 0.5 |
| C3A G5C | 0.31 |
| C3A C13U | 1.71 |

| Variant | self-cleavage |
| --- | --- |
| C3A C13G | 0.54 |
| C3A C13A | 0.25 |
| C3G C46G | 0.35 |
| C3G C46U | 0.17 |
| C3G C46A | 0.36 |
| C3U C37G | 0.05 |
| C3U C37U | 0.14 |
| C3U C37A | 0.12 |
| C3U A16U | 0.09 |
| C3U A16C | 0.09 |
| C3U A16G | 0.16 |
| C3A U34C | 0.14 |
| C3A U34A | 0.11 |
| C3A U34G | 0.12 |
| C3A U20G | 0.31 |
| C3A U20A | 0.38 |
| C3A U20C | 0.19 |
| C3A C31A | 0.16 |
| C3A C31G | 0.13 |
| C3A C31U | 0.11 |
| C3G U28A | 0.22 |
| C3G U28C | 0.16 |
| C3G U28G | 0.19 |
| C3G G40C | 0.1 |

| Variant | self-cleavage |
| --- | --- |
| C3G G40U | 0.13 |
| C3G G40A | 0.39 |
| C3A C46U | 0.41 |
| C3A C46G | 0.29 |
| C3A C46A | 0.4 |
| C3G U34A | 0.08 |
| C3G U34G | 0.08 |
| C3G U34C | 0.1 |
| C3A C45G | 0.42 |
| C3A C45U | 0.53 |
| C3A C45A | 0.48 |
| C3A G27U | 0.62 |
| C3A G27C | 0.24 |
| C3A G27A | 0.31 |
| C3G U38A | 0.18 |
| C3G U38C | 0.22 |
| C3G U38G | 0.05 |
| C3G A25C | 0.18 |
| C3G A25U | 0.47 |
| C3G A25G | 0.14 |
| C3U G35U | 0.18 |
| C3U G35C | 0.11 |
| C3U G35A | 0.22 |
